Biological target: the molecule itself
Experiment: SEC

B1: C-terminal fragment of human NLRX1 (residues 629-975) (domain or fragment, UniProt Q86UT6 629-975, looked up)
chain: GLLSAHNRAVLAQLGCPIKNLDALENAQAIKKKLGKLGRQVLPPSELLDHLFFHYEFQNQRFSAEVLSSLRQLNLAGVRMTPVKCTVVAAVLGSGRHALDEVNLASCQLDPAGLRTLLPVFLRARKLGLQLNSLGPEACKDLRDLLLHDQCQITTLRLSNNPLTAAGVAVLMEGLAGNTSVTHLSLLHTGLGDEGLELLAAQLDRNRQLQELNVAYNGAGDTAALALARAAREHPSLELLHLYFNELSSEGRQVLRDLGGAAEGGARVVVSLTEGTAVSEYWSVILSEVQRNLNSWDRARVQRHLELLLRDLEDSRGATLNPWRKAQLLRVEGEVRALLEQLGSSGS
stoichiometry N: 2
